This note sets out measurements from article PMC7536876 (bioRxiv, 2020).

Usually stoichiometry N stands for the number of molecules, sites or subunits per partner or assembly.

What all share (assay): native MS
Data set [1] deals with HCoV-229E nsp7–8-His6 precursor (HCoV-229E) (UniProt P0C6X1).
Data set [2] concerns the target PEDV nsp7–8-His6 precursor (PEDV (strain CV777)) (UniProt P0C6Y4).
Data set [3] has as its target SARS-CoV nsp7–8-His6 precursor (SARS-CoV (strain Frankfurt-1)) (UniProt P0C6X7).
The data set “native MS” concerns the molecule itself.

“HCoV-229E nsp7–8-His6 precursor (from UniProt P0C6X1) (domain or fragment)”: the stoichiometry N in data set [1] is 2.
As for “PEDV nsp7–8-His6 precursor (from UniProt P0C6Y4) (domain or fragment)”, the stoichiometry N in data set [2] was found to be 2.
The molecule “SARS-CoV nsp7–8-His6 precursor (from UniProt P0C6X7) (domain or fragment)” registered a stoichiometry N in data set [3] of 2.

B1: MERS-CoV nsp7 (natural protein)
chain: SKLTDLKCTSVVLLSVLQQLHLEANSRAWAFCVKCHNDILAATDPSEAFEKFVSLFATLMTFSGNVDLDALASDIFDTPSVLQ
As for B1, the “stoichiometry N” value in the data set “native MS” was determined as 2.

B2: PEDV nsp7 (natural protein)
chain: SKLTDIKCSNVVLLGCLSSMNVSANSTEWAYCVDLHNKINLCNDPEKAQEMLLALLAFFLSKNSAFGLDDLLESYFNDNSMLQ
On to B2, for which, in the data set “native MS”, the “stoichiometry N” value is 2.

B3: FIPV nsp7 (natural protein)
chain: SKLTEMKCTNVVLLGLLSKMHVESNSKEWNYCVGLHNEINLCDDPDAVLEKLLALIAFFLSKHNTCDLSDLIESYFENTTILQ
With B3, the “stoichiometry N” value in “native MS” amounted to 2.
